# What was measured:
# Experiment in all cases: cell_activity
# [1] = test system: MsCOMT_T01.1 TALE nuclease left monomer (synthetic construct); conditions: value for nuclease pair; alfalfa protoplasts, 28 C, 2 days; left site boundary inferred from 15 bp spacer
# [2] = test system: MsCOMT_T02.1 TALE nuclease left monomer (synthetic construct); conditions: value for nuclease pair; alfalfa protoplasts, 28 C, 2 days
# [3] = test system: MsCOMT_T01.1 TALE nuclease right monomer (synthetic construct); conditions: value for nuclease pair; alfalfa protoplasts, 28 C, 2 days
# [4] = test system: MsCOMT_T02.1 TALE nuclease right monomer (synthetic construct); conditions: value for nuclease pair; alfalfa protoplasts, 28 C, 2 days
# [5] = test system: MsCOMT_T03.1 TALE nuclease left monomer (synthetic construct); conditions: value for nuclease pair; alfalfa protoplasts, 28 C, 2 days
# [6] = test system: MsCOMT_T03.1 TALE nuclease right monomer (synthetic construct); conditions: value for nuclease pair; alfalfa protoplasts, 28 C, 2 days
sequence,measurement,setting,value
TTCAACAGGTGAAACTC (double strand) [MsCOMT_T01.1 left half-site],activity (% mutation frequency),[1],12.6
TGAACTTGATCTCTTAG (double strand) [MsCOMT_T02.1 left half-site],activity (% mutation frequency),[2],15.9
ACATATCAGATGAAGAA (double strand) [MsCOMT_T01.1 right half-site (top strand)],activity (% mutation frequency),[3],12.6
CTGGACCTGGTGCTCAA (double strand) [MsCOMT_T02.1 right half-site (top strand)],activity (% mutation frequency),[4],15.9
TTGCTTCTCAGCTACCA (double strand) [MsCOMT_T03.1 left half-site],activity (% mutation frequency),[5],14.1
GCACCAGTTATGTTGGA (double strand) [MsCOMT_T03.1 right half-site (top strand)],activity (% mutation frequency),[6],14.1

# Reference: patent US20200048648
